Measured values reported in US20260116996A1 (REGENTS OF THE UNIVERSITY OF MINNESOTA, published 2026).

Columns and labels:
[1] = target: mouse serpinB13 (mouse) (UniProt Q8CDC0); assay: flow cytometry, isotype control staining in place of B29 and anti-EpCAM; the tissue of this panel is not named
[2] = target: T1, recombinant human serpinB13 (human, UniProt Q9UIV8 1-391)
T1 construct: The baculovirus-made protein (GenScript) was used for panning, ELISA and the cathepsin L assay; In the Luminex assay human serpinB13 was V5-His tagged and came from 293 cell lysates; also called rhB13
T1 sequence (looked up): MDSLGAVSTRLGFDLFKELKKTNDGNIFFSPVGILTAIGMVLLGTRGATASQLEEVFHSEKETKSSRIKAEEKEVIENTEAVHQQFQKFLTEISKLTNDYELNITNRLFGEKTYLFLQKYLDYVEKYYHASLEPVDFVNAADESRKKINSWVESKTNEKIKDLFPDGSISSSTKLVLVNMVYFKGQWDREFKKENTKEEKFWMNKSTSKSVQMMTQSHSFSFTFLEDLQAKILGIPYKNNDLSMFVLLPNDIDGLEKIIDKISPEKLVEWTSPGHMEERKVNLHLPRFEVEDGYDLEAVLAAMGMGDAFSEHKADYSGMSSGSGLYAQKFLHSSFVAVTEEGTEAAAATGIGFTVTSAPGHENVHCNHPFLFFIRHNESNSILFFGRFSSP

mouse serpinB13 (mouse), sequence (Q8CDC0 whole entry): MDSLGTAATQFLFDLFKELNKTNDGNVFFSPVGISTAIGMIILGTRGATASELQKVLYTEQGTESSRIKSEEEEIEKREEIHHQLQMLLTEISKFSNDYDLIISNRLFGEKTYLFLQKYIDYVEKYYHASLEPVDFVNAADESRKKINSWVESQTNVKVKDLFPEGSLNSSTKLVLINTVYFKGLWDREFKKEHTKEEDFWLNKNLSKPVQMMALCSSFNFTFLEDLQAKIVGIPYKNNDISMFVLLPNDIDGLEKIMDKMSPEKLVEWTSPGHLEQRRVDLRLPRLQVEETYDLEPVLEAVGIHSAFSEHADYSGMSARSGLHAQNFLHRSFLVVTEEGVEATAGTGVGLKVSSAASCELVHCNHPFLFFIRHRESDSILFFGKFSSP

| quadrant Q1 (SerpinB13-Alexa647 high, EpCAM low), percent of cells [1] | Substance | substrate cleavage by CatL (fluorescence, kinetic mode) [2] |
| --- | --- | --- |
| 0.43 | Control Ab (antibody) |  |
|  | cathepsin L (Cathepsin L Inhibitor Screening Kit, BioVision) | Inhibition of a substrate cleavage by CatL with different doses of recombinant human serpinB13 over time |
